Experimental data reported in US20060177449A1.

Tests used:
[1] = target: monoclonal antibody 23L-2Ca; assay: competitive EIA: unlabeled ligand varied against HRP-labeled [Cys^19-NH2] rat TGR23-2 ligand (1-19) for 23L-2Ca (FIG. 7)
[2] = target: monoclonal antibody 23L-1Na; assay: competitive EIA: unlabeled ligand varied against HRP-labeled [Cys^19-NH2] rat TGR23-2 ligand (1-19) for 23L-1Na (FIG. 5)
[3] = target: monoclonal antibody 23L-1Ca; assay: competitive EIA: unlabeled ligand varied against HRP-labeled [Cys^19-NH2] rat TGR23-2 ligand (1-19) for 23L-1Ca (FIG. 6)

IC50 [1] [nM] | IC50 [2] [nM] | IC50 [3] [nM] | Binder
40 | 60 |  | SFRNGVGSGAKKTSFRRAKQ [mouse TGR23-2 ligand]
20 | 100 | 20 | SFRNGVGSGVKKTSFRRA [rat TGR23-2 ligand]
 | 60 |  | SFRNGVGTGMKKTSFQRAKS [human TGR23-2 ligand]
